Laboratory results reported in the DeepSol protein solubility set.

Assay: soluble on expression in E. coli; label from the status in PepcDB or PDB records

Sequence | soluble on expression in E. coli
DLVPQIIWTGSSDGFIDYYNKRWYEYTGFDGKAFGDKSWVPVMHPDDVQEVLDCWYGSVKKGTPYQIELRMKSAETGEYRWFLSKALPIKDKTGVITKWFGTCTDI | not soluble
DMRVVSVNPAARRLLDLPDDYIPIERPLEEVCAKIPFGPDELGEGESRTWRLPTAEVRRITRMRFFDRSFSRLFFSIETLTEELHSAEKEAYEKLIRLIAHEVNNSTAGIIGVLNAVGDAFDDTPHTPEGEVSEAIALCRDRCMAMSRFITRFAEVVKLPDPTLSSVDLVPLCERCILLMQPLAVETGVKMKMCKEQDSCLVRCDAEQIEQVVINLLRNAIESFAQQNDLAVSATKTVLLCLDRHNLLVEDNGQPISDDVATRLFTPFFSTKPNGQGIGLVVIREVLTRHGWSFSLTTDADGRTRFRMAWP | not soluble
DMWVYCETQAGDLVDVSKEMLGKARELMNDYNAAYDEDERVVAVLIGAAASDHVEDVIAYGADLVVYHEDDRLDRFRHQPYTEIFCDMARAGGDLAADGREETEWKDYHEPRYTVFPATNNGRDLSALVQGELDSGLASDCSGLYIESAMISNPAKVGTAGDKKEFERVLHMKRPDFSGFEYSTILCIDKPHRDFHPQGASVIPGSFEMPDPDYERDGEVVDYGMDIDDDWFTVEVEEYDRLSGGVD | not soluble
DNGLHYSVGFNLSDTRAEITKYDNPTKSLSSPYYEGQIVGDIWGYESSLFQSADEIASAPDQSKLDGGISKVPGDIRFMDIDGNGVVDYGENTVDKPGDMKIIGNNKARYRYGFNISADWKGFDLGIFFQGVGKRDLMLPYTFKWQYGSMWQVSTAVGNDYWREDNAGGWLPVARFNGSQALGQNQTRYLLDASYLRLKSLSFGYTLPVSLTKQWGIQKCRVYFTGENLLTFKHTPEGFDPELDDPYKYPQQKSLALGLNVVF | not soluble
DPSVVLQMAEGPATYEQAPAGAPPANDPQARFVAKVLGETEDTWGAIFTQSLNRNYVPPKLVLFRGATPTACGTGQAAMGPFYCPGDSKVYIDLGFFDEMERRLNAPGDFAQAYVIAHEVGHHVQHLLGVSEQVDRLRQRNPAQANALSVRMELQADCFAGLWARRADQARNILESGDIEEGLNAASAIGDDTLQKKSQGYVVPDAFTHGSSAQRVRWFKRGLESGDLRQCDTF | not soluble
DRLTEEYGMHVYGIEFDEDRIIELRDRGYRIVAGDVTDPELWRRIELLDIPQLFAMSLPRYTDSDKVLARIHHDYPGATVATITQTRGREQALLTAGADVAVYLYEGVGDELADQAVAHLRQG | not soluble
DSLDEQRSRYAQIKQAWDNRQMDVVEQMMPGLKDYPLYPYLEYRQITDDLMNQPAVTVTNFVRANPTLPPARTLQSRFVNELARREDWRGLLAFSPEKPGTTEAQCNYYYAKWNTGQSEEAWQGAKELWLTGKSQPNACDKLFSVWRASGKQDPLAYLERIRLAMKAGNTGLVTVLAGQMPADYQTIASAIISLANNPNTVLTFARTTGATDFTRQMAAVAFASVARQDAENARLMIPSLAQAQQLNEDQIQELRDIVAWRLMGNDVTDEQAKWRDDAIMRSQSTSLIERRVRMALGTGDRRGLNTWLARLPMEAKEKDEWRYWQADLLLERGREAEAKEILHQLMQQRGFYPMVAAQRIGEEYELKIDKAPQNVDSALTQGPEMARVRELMYWNLDNTARSEWANLVKSKSKTEQAQLARYAFNNQWWDLSVQATIAGKLWDHLEERFPLAYNDLFKRYTSGKEIPQSYAMAIARQESAWNPKVKSPVGASGLMQIMPGTATHTVKMFSIPGYSSPGQLLDPETNINIGTSYLQYVYQQFGNNRIFSSAAYNAGPGRVRTWLGNSAGRIDAVAFVESIPFSETRGYVKNVLAYDAYYRYFMGDKPTLMSATEWGRRY | soluble
DSLKAEVNTLFARFDEQPLAAASIAQVHTAALFDGREVIVKVTRPNIRTQILQDFEIISWLGQSLESRLEAARALHLSEIIQDYRQIILNELDLTLEADNTRRMRHYFTGSSMMYVPEVY | not soluble
DTETTGLPADETQFISGVDAPAPVSVGWQLLDFRFRCIEEVVCRLSTDEPVSPEAAALHGITDASLHGDDPHEVYARLLGAVSKAKVLSAHNLAFHRSVLVYDMRRRGFDPSPLFSLDDYCTMEAGVDFTHLYGSCGTWKLPRLTELFGVLYFGLPGVRTTYREKVRNDIRLVAACLHRMNPTTPSLE | not soluble
DTTGSTPAPIDENGTVLALLPEFEHNPNAMFVLWKDHTSVAKADRINELAHSGKFTDYTRYVGGVYSSEWFWAKAAWVSEQDEQVAKRAFSWVELCDWIPAILADTQHPQKLRRGICAAGHKAMWHESWGGLPEQAFLSAISPTLDGIRDRMFTEVFTSDQAAGYLSKAWAIKLGLPEGIAIAIGEFDCHMGAVGAGAGANDLVKVIGTSTCDILMVESQNVGDRTIHGICGQVEGSAMPELLALEAGQSAFGDMYAWFKNVLMWPLQAYAEHNPDFALTAEEIASELLPMLSQAAEQQGIDQYTPVAMDWLNGRRTPYANQRLKGAICDLNLGSSSPAIFSALVESTAHGAKAIVDCFIEQDVTVERVIAIGGIAQKSPYVMQMCADVIGRDIIVVESDQ | not soluble
DVGSAIDAAHQAFLRYQQCPLKTRSAIISALRETLAPELATLAEESATETGMGNKEDKYLKNKAALENTPGIEDLTTSALTGDGGMVLFEYSPFGVIGAVAPSTNPTETIINNSISMLAAGNSVYFSPHPGAKKVSLKLIARIEEIAYRCSGIRNLVVTVAEPTFEATQQMMSHPLIAVLAITGGPGIVAMGMKSGKKVIGAGAGNPPCIVDETADLVKAAEDIISG | not soluble
DVKLVESGGGLVKPGRSLKLSCAASGFTFSDYYMFWVRQTPEQRLEWVATISDGGAYTYYPDSVKGRFTISRDNAKNNLYLQMNSLKSEDTGMYYCARDPLEYYGMDYWGQGTSVAVSSAKTTAPSVYPLAPVCGDTTGSSVTLGCLVKGYFPEPVTVTWNSGSLSSGVHTFPAVLQSDLYTLSSSVNVTSSTWPSQSITCNVAHPASSTKVDKKIVPR | soluble
DVQPETCRPSAASGNYFPQYPEYAIETARLRTFEAWPRNLKQKPHQLAEAGFFYTGVGDRVRCFSCGGGLMDWNDNDEPWEQHALWLSQCRFVKLMKGQLYIDTVAAKPVLAEEKEESTSIGGD | soluble
EAMFCDFPKINHGILYDEEKYKPFSQVPTGEVFYYSCEYNFVSPSKSFWTRITCAEEGWSPTPKCLRLCFFPFVENGHSESSGQTHLEGDTVQIICNTGYRLQNNENNISCVERGWSTPPKCRSTISAEKCGPPPPIDNGDITSFLLSVYAPGSSVEYQCQNLYQLEGNNQITCRNGQWSEPPKCLDPCVISQEIMEKYNIKLKWTNQQKLYSRTGDIVEFVCKSGYHPTKSHSFRAMCQNGKLVYPSCEEK | not soluble
EAVHRLDLILCNKTAYQEVFKPENISLRNKLRELCVKLMFLHPVDYGRKAEELLWRKVYYEVIQLIKTNKKHIHSRSTLECAYRTHLVAGIGFYQHLLLYIQSHYQLELQCCIDWTHVTDPLIGCKKPVSASGKEMDWAQMACHRCLVYLGDLSRYQNELAGVDTELLAERFYYQALSVAPQIGMPFNQLGTLAGSKYYNVEAMYCYLRCIQSEVSFEGAYGNLKRLYDKAAKMYHQLKKCETRKLSPGKKRCKDIKRLLVNFMYLQSLLQPKSSSVDSELTSLCQSVLEDFNLCLFYLPSSPNLSLASEDEEEYESGYAFLPDLLIFQMVIICLMCVHSLERAGSKQYSAAIAFTLALFSHLVNHVNIRLQAELEEGENPVPAFQSDGTDEPESKEPVEKEEEPDPEPPPVTPQVGEGRKSRKFSRLSCLRRRRHPPKVGDDSDLSEGFESDSSHDSARASEGSDSGSDKSLEGGGTAFDAETDSEMNSQESRSDLEDMEEEEGTRSPTLEPPRGRSEAPDSLNGPLGPSEASIASNLQAMSTQMFQTKRCFRLAPTFSNLLLQPTTNPHTSASHRPCVNGDVDKPSEPASEEGSESEGSESSGRSCRNERSIQEKLQVLMAEGLLPAVKVFLDWLRTNPDLIIVCAQSSQSLWNRLSVLLNLLPAAGELQESGLALCPEVQDLLEGCELPDLPSSLLLPEDMALRNLPPLRAAHRRFNFDTDRPLLSTLEESVVRICCIRSFGHFIARLQGSILQFNPEVGIFVSIAQSEQESLLQQAQAQFRMAQEEARRNRLMRDMAQLRLQLEVSQLEGSLQQPKAQSAMSPYLVPDTQALCHHLPVIRQLATSGRFIVIIPRTVIDGLDLLKKEHPGARDGIRYLEAEFKKGNRYIRCQKEVGKSFERHKLKRQDADAWTLYKILDSCKQLTLAQGAGEEDPSGMVTIITGLPLDNPSVLSGPMQAALQAAAHASVDIKNVLDFYKQWKEIG | soluble
EFRKLGEVCESTNKKTLKISEVSEVKNKGMYPVINSGRDLYGYYHDFNNDGENITIASRGEYAGFINYFNEKFFAGGLCYPYKVKDTNELLTKFLYFYLKTNEIQIMENLVFRGSIPALNKADIETLTIPIPPLEIQQEIVKILDQFSA | not soluble
EGFYRHQTQSFSFMVNNVQVVFPSSTSKPWQGLASRRQIDIPQEKVDMIKQSGFVQQASSVYAKWDANITNLKGQNLSSTVSGIDTSYFPLIQRKLQSGSRNLSPSDMKNHTRVAVLGDQIAQMGGIQIGDRLKVNGIPFLVIGITVGEDTGISFGDSRTVFIPQTTYRDLWDAKPWMVLMKPRDGMDAPSFRQNIVNFFAKQLHFDPSDKDAVELPDFSEGAAVISGILRGIQI | not soluble
EHIEELLRNIRTQVLIKLIKPYTRIHIPFISKELNIDVADVESLLVQCILDNTIHGRIDQVNQLLELDHQKRGGARYTALDKW | soluble
EKAQLIGPEDADITFVTWGSQKGPILDVIEDLKQDDITANLLYLKMFSPFPTEFVKSILSKAHLVIDVESNFTAQAAQMIKLYTGIEIENKILKYNGRHMTEDEILNSAKNILNK | not soluble
ELYVVASPKSPIMEINKEQLSALYLGRNRVVGNTYINQVLDRSGTVRQRFFLQVTNMQESQINAYWAKLKFSGRLRAPESVVSEQELIAKLEENPFSIGYTDQVPSDALKVLLVL | not soluble
EPEEVIPSRLDIRVGKIITVEKHPDADSLYVEKIDVGEAEPRTVVSGLVQFVPKEELQDRLVVVLCNLKPQKMRGVESQGMLLCASIEGINRQVEPLDPPAGSAPGEHVFVKGYEKGQPDEELKPKKKVFEKLQADFKISEECIAQWKQTNFMTKLGSISCKSLKGGNISLE | soluble
EQPFYRTKVKLKKEIVTLGVPGVDPNKQVGQYVEAKDWNALISDPEVLLIDTRNDYEVAIGTFEGAVDPKTRSFREFPEYIKAHYDPARHKKVAMFCTGGIRCEKASSYMLGAGFEEVFHLKGGILKYLEEVPQEQSLWRGDCFVFDNRVTVRHDLSEGEYDQCHA | not soluble
ESSFTYTLDEKVAELVEFLLLKYEAEEPVTEAEMLMIVIKYKDYFPVILKRAREFMELLFGLALIEVGPDHFCVFANTVGLTDEGSDDEGMPENSLLIIILSVIFIKGNCASEEVIWEVLNAVGVYAGREHFVYGEPRELLTKVWVQGHYLEYREVPHSSPPYYEFLWGPRAHSESIKKKVLEFLAKLNNTVPSSFPSWYKDALKDVEERVQATIDTADD | soluble
ETVIMKYLLPTAAAGLLLLAAQPAMAQVKLQQSGAELVRSGTSVKLSCTASGFNIKDSYMHWLRQGPEQGLEWIGWIDPENGDTEYAPKFQGKATFTTDTSSNTAYLQLSSLTSEDTAVYYCNEGTPTGPYYFDYWGQGTTVTVSSGGGGSGGGGSGGGGSENVLTQSPAIMSASPGEKVTITCSASSSVSYMHWFQQKPGTSPKLWIYSTSNLASGVPARFSGSGSGTSYSLTISRMEAEDAATYYCQQRSSYPLTFGAGTKLELKRAAAEQKLISEEDLN | soluble
ETVQVNLPVSLEDLFVGKKKSFKIGRKGPHGASEKTQIDIQLKPGWKAGTKITYKNQGDYNPQTGRRKTLQFVIQEKSHPNFKRDGDDLIYTLPLSFKESLLGFSKTIQTIDGRTLPLSRVQPVQPSQTSTYPGQGMPTPKNPSQRGNLIVKYKVDYPISLNDAQKRAIDENF | soluble
